Measured values from publication PMC3026807.

Molecular target: His221 (UniProt position 221, RKPFYHAFSFM)
Experiment: electrophysiology
Conditions: Symmetrical high K+. Bath: standard solution with Na+ replaced equimolarly by K+ (140 mM extracellular K+). Pipette: 140 mM KCl.; 10 mM Hepes/Tris; MES for pH 5.0-6.5, AMPSO for pH 8.5-9.0, CAPS for pH 9.5-11.0; pHo gating in high symmetrical K+ (needed to restore currents of the double mutant)

## TASK-3 (K2P9.1, KCNK9) H98N/V221H double mutant (Cavia porcellus; H98N;V221H)
  pKa: 6.86±0.11
